Data as given in the supplement of paper PMC10724198.
± gives the standard deviation of the averaged measurements.

Each sequence was assayed on Saccharomyces cerevisiae (assay: protein stability index of tFT-peptide fusion (C-terminal peptide) (PSI (0-1 scale)); higher = more stable (slower turnover)). Conditions: genetic background: wild type; temperature: 30 C.
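Further: PSI is a weighted mean of sequencing reads over stability bins, variants kept only with over 10 reads, mCherry proximal and sfGFP distal, peptide attached via GGGS linker.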

Sequence	protein stability index
LPPPSPPSSAPP	0.734 ± 0.049
LPPPSPPTPPFP	0.691 ± 0.018
LPPPSPTPPPPP	0.683 ± 0.019
LPPRPPRPPPSP	0.666 ± 0.019
LPPSLPPRLPPP	0.658 ± 0.04
LPPSPILFPASP	0.754 ± 0.072
LPPSPPLPCPLL	0.75 ± 0.048
LPPSPRLSFSPP	0.701 ± 0.034
LPPSRSLLPPRP	0.6531 ± 0.0059
LPPTPSSRGPHS	0.669 ± 0.019
LPQPQPPVPPPL	0.7209 ± 0.0042
LPRPAPPIRPRT	0.74 ± 0.013
LPRPLSPPLPSP	0.702 ± 0.042
LPRPPPPPALPT	0.66 ± 0.087
LPRPPPRYLPPL	0.711 ± 0.059
LPRRLLFSYPTF	0.647 ± 0.02
LPSAPLLPLLRP	0.68 ± 0.041
LPSASPPSPPPP	0.652 ± 0.037
LPSLSSFALHMP	0.685 ± 0.018
LPSPPVSIPYPS	0.671 ± 0.029
LPSPSGSPVPFL	0.771 ± 0.041
LPSPSSTLSPLR	0.674 ± 0.059
LPSPTTNLFKPN	0.711 ± 0.0091

Sequence	protein stability index
LPSSCVLHMFFP	0.7111 ± 0.0024
LPTLPGWKASCL	0.674 ± 0.032
LPTPFKSSPSAA	0.674 ± 0.024
LPVGYVCGLWVG	0.543 ± 0.038
LPVSGLRAAGAM	0.7154 ± 0.0034
LQALQTKPSQAL	0.688 ± 0.083
LQDLPRLHALPN	0.727 ± 0.086
LQHRHSTSPRPT	0.657 ± 0.037
LQRVPTDAVPDC	0.7074 ± 0.0044
LQWSPQAELEGT	0.712 ± 0.043
LRCVPAVFFACK	0.647 ± 0.045
LRERKVYLVKIK	0.575 ± 0.006
LRETDGSGQYVR	0.686 ± 0.014
LRFWCFGDVCPV	0.754 ± 0.057
LRGACWLARTRT	0.677 ± 0.018
LRGEGPGRKGGA	0.67 ± 0.05
LRGPRTSTPLST	0.714 ± 0.036
LRGVACCSPILG	0.631 ± 0.036
LRHWKALVTYLL	0.566 ± 0.052
LRIGTCYCGVAW	0.814 ± 0.049
LRLLYGYWGKFL	0.547 ± 0.0072
LRLRGCSATVPG	0.752 ± 0.063
LRLSSFSFSRLS	0.701 ± 0.16

Sequence	protein stability index
LRNCSVSGSIEW	0.699 ± 0.019
LRPFSRVLRARS	0.628 ± 0.019
LRPLPPRHPPAP	0.624 ± 0.069
LRPPPPPAQPFV	0.69 ± 0.033
LRPSLPCPPFCP	0.641 ± 0.057
LRPTPLPRPSPA	0.691 ± 0.024
LRQEVVRPEWYM	0.66 ± 0.054
LRRKSLHFSFPF	0.618 ± 0.054
LRRSRQGGSGRR	0.6 ± 0.044
LRRVGKLRESGS	0.688 ± 0.018
LRSIQVHLGSTA	0.6992 ± 0.0043
LRSPAILFSFAF	0.602 ± 0.043
LRSPGSHIVRLT	0.569 ± 0.035
LRVRLSVLLPLD	0.578 ± 0.0093
LRVTPYTPRSYP	0.732 ± 0.058
LRVVWNLSSRAI	0.636 ± 0.059
LRWGLFSLAWVT	0.5437 ± 0.00065
LRYLEGWWVLRW	0.554 ± 0.063
LSALQQSSAPSI	0.691 ± 0.057
LSCSLSWFFSSV	0.679 ± 0.083
LSFFPPPLPPSS	0.71 ± 0.044
LSFHSYLSPFYL	0.664 ± 0.051
LSFLSDVRHIRE	0.643 ± 0.1

Sequence	protein stability index
LSGWIRTLLPET	0.674 ± 0.047
LSGYTLRRIISQ	0.704 ± 0.063
LSLPPLRPPYPP	0.678 ± 0.091
LSLVSGWVIPGV	0.687 ± 0.051
LSNATPAHAGKP	0.706 ± 0.13
LSPGRPPRPPRR	0.702 ± 0.041
LSPLPTPLRPNS	0.68 ± 0.025
LSPPPLPPVPSP	0.712 ± 0.015
LSPPPPPLPPPL	0.622 ± 0.12
LSPPSSPPPTPS	0.714 ± 0.076
LSSCPRIMVPIT	0.777 ± 0.11
LSSITLTYVSDF	0.781 ± 0.12
LSSLLFFLSWVV	0.529 ± 0.018
LSSLPSTFPPLP	0.692 ± 0.029
LSTCRYMLRLAY	0.5233 ± 0.0021
LSTPFFFVPLTL	0.621 ± 0.007
LSVLNTQFGFGS	0.6751 ± 0.0054
LSVQFVSQHTRV	0.664 ± 0.024
LSVSSLMFNWRS	0.707 ± 0.02
LSWLSLSSNSRL	0.798 ± 0.019
LSWSYTGVCRSE	0.69 ± 0.06
LSYCVGFFSLVG	0.6459 ± 0.0012
LSYSFGCEFLWL	0.674 ± 0.033

Sequence	protein stability index
LTAKDSRGLFRP	0.706 ± 0.012
LTARPPTLSSPL	0.6729 ± 0.0043
LTASPPRLPPFP	0.701 ± 0.0081
LTGRAVCTDKLK	0.734 ± 0.083
LTKPPHERREKS	0.635 ± 0.019
LTLADWYRIPVI	0.558 ± 0.051
LTLCYGRLPPRL	0.771 ± 0.022
LTPLPSRPPPLP	0.683 ± 0.087
LTSSLSLSFPPL	0.749 ± 0.039
LTTFLLTRIVGA	0.567 ± 0.035
LTVLGSGNLTRS	0.729 ± 0.029
LTYFCTLPATLK	0.663 ± 0.022
LVAATGRCIKKP	0.649 ± 0.061
LVAFKGNSMGRE	0.681 ± 0.019
LVALCGYTLRLR	0.487 ± 0.076
LVCMGCCVRTYT	0.608 ± 0.037
LVCPLFCSRWWV	0.674 ± 0.1
LVFGVSRRLGRG	0.65 ± 0.01
LVFHSLCFFPLS	0.694 ± 0.014
LVFREISSRHEI	0.711 ± 0.018
LVGGGEGWVVLG	0.651 ± 0.09
LVGIYYEHPISP	0.754 ± 0.13
LVGLGGCLVGLR	0.6277 ± 0.0027

Sequence	protein stability index
LVGLVCDFVFVL	0.589 ± 0.007
LVGSGLFGWGWN	0.769 ± 0.073
LVHDQKFSCNWL	0.74 ± 0.031
LVILWDVLSVVP	0.612 ± 0.049
LVIVFDLGNMLH	0.538 ± 0.038
LVLLTRSASLLG	0.691 ± 0.094
LVLSGFSLFPVP	0.705 ± 0.034
LVLTLAPWILFD	0.6784 ± 0.0015
LVLVGISCVKGR	0.597 ± 0.02
LVMTYGFTSVSR	0.687 ± 0.07
LVPWSGCSALLV	0.585 ± 0.014
LVRFRADEPRGG	0.688 ± 0.058
LVRFTCRFFVGV	0.589 ± 0.0089
LVRGRFVVFSGM	0.626 ± 0.034
LVRHCIPIIPPP	0.638 ± 0.026
LVRLVGVGLEAV	0.694 ± 0.055
LVSHVPLLPMTP	0.776 ± 0.03
LVSLPISFPASL	0.692 ± 0.035
LVSSLVSSEVYM	0.656 ± 0.019
LVTCPPPVGGPS	0.691 ± 0.0083
LVTGRVASPPLG	0.696 ± 0.043
LVTSACPVPPAR	0.5766 ± 0.002
LVVSHMSQPISM	0.64 ± 0.03

Sequence	protein stability index
LWALPTPPPSGH	0.67 ± 0.1
LWCPLPHGVLLL	0.608 ± 0.053
LWFPLCRLVRRD	0.682 ± 0.025
LWFVGVAGFSLV	0.5715 ± 0.004
LWSIEVEKAKQK	0.708 ± 0.068
LWSSRPGFDDVW	0.6426 ± 0.0011
LWVSSGASCFIL	0.7239 ± 0.0039
LYGILSCNSGCG	0.672 ± 0.035
LYKYPKRCVDIG	0.676 ± 0.057
LYRFVSVLSDVH	0.577 ± 0.012
LYRRLLCYPKTR	0.675 ± 0.0043
LYSDLLTDDKNC	0.666 ± 0.023
LYSGIAVSATSL	0.734 ± 0.048
LYTENSDLDRVF	0.657 ± 0.039
LYWAYLGASVLL	0.658 ± 0.013
MAFKLFPFGRNL	0.73 ± 0.028
MAVYLKYSLLRL	0.515 ± 0.037
MCNLSLSCEGLG	0.665 ± 0.045
MCVFGLFCSCFD	0.586 ± 0.082
MCWGSAEAMGFR	0.663 ± 0.014
MEGRVARAYSDE	0.688 ± 0.04
MFCRSPSYFPTV	0.739 ± 0.035
